# Assay results as given in patent US20240317834A1, “COMPOSITIONS AND METHODS FOR NEUROLOGICAL DISEASES” (CODA BIOTHERAPEUTICS, INC., priority 2020, published 2024).
# B1: CODA236: engineered chimeric LGIC receptor, R101F in SEQ ID NO: 33 (protein)
# chain: MRCSPGGVWLALAASLLHVSLQGEFQRKLYKELVKNYNPLERPVANDSQPLTVYFSLSLLQIMDVDEKNQVLTTNIWLQMSWTDHYLQWNVSEYPGVKTVFFPDGQIWKPDILLYNSADERFDATFHTNVLVNSSGHCQYLPPGIFKSSCPMDLKNFPMDVQTCKLKFGSWSYGGWSLDLQMQEADISGYIPNGEWDLVGIPGKRSERFYECCKEPYPDVTFTVTMRRRMGYYLIQMYIPSLLIVILSWISFWINMDAAPARVGLGITTVLTMTTQSSGSRASLPKVSYVKAIDIWMAVCLLFVFSALLEYAAVNFVSRQHKELLRFRRKRRHHKSPMLNLFQEDEAGEGRFNFSAYGMGPACLQAKDGISVKGANNSNTTNPPPAPSKSPEEMRKLFIQRAKKIDKISRIGFPMAFLIFNMFYWIIYKIVRREDVHNQ
# modifications: synthetic sequence of chimeric LGIC
# B2: CODA237: engineered chimeric LGIC receptor, R101M in SEQ ID NO: 33 (protein)
# chain: MRCSPGGVWLALAASLLHVSLQGEFQRKLYKELVKNYNPLERPVANDSQPLTVYFSLSLLQIMDVDEKNQVLTTNIWLQMSWTDHYLQWNVSEYPGVKTVMFPDGQIWKPDILLYNSADERFDATFHTNVLVNSSGHCQYLPPGIFKSSCPMDLKNFPMDVQTCKLKFGSWSYGGWSLDLQMQEADISGYIPNGEWDLVGIPGKRSERFYECCKEPYPDVTFTVTMRRRMGYYLIQMYIPSLLIVILSWISFWINMDAAPARVGLGITTVLTMTTQSSGSRASLPKVSYVKAIDIWMAVCLLFVFSALLEYAAVNFVSRQHKELLRFRRKRRHHKSPMLNLFQEDEAGEGRFNFSAYGMGPACLQAKDGISVKGANNSNTTNPPPAPSKSPEEMRKLFIQRAKKIDKISRIGFPMAFLIFNMFYWIIYKIVRREDVHNQ
# modifications: synthetic sequence of chimeric LGIC
# Tested on: Lenti-X 293T cells
# Experiment: YFP fluorescence quenching anion reporter plate reader assay of engineered receptors stimulated with acetylcholine or a non-native ligand
# Assay type: cell-based
# Conditions: for percent quench of YFP fluorescence, 10 uM ach: acetylcholine 10 uM; for percent quench of YFP fluorescence, 100 uM ach: acetylcholine 100 uM; for percent quench of YFP fluorescence, 1 mM ach: acetylcholine 1 mM; for percent quench of YFP fluorescence, 3 mM ach: acetylcholine 3 mM
# Source text: To screen these mutant LGICs for those having novel response profiles to ligands, an anion reporter assay was developed to assess the function of the LGICs in a high throughput format. In this assay, cells expressing a YFP reporter whose fluorescence is quenched in the presence of anion are transfected with DNA encoding the channel of interest. Upon exposure to ligand, channels that are activated will flux anion, resulting in a dose-dependent quench of the YFP that can be detected on a plate reader. The greater the quench signal (i.e., the more positive the value), the higher the ligand activity on the receptor is.
# Lenti-X 293T cells (LX293T, Clontech) were maintained in DMEM containing 10% FBS and 1% penicillin/streptomycin (Invitrogen). […] Two days before assay, cells were split at a density of 20,000 cells/well in a 96-well tissue culture plate coated with poly-d lysine (Thermo Scientific). The next day, the cells were transiently transfected with 0.1 μg of DNA per well using standard Fugene protocol (Promega). On the day of assay, cells were washed 2 times in 1× extracellular solution (1×ECS: 140 mM NaCl, 5 mM KCl, 1 mM MgCl2, 2 mM CaCl2), 10 mM HEPES, 10 mM glucose, pH 7.2, mOsms 300). After the last wash, 100 μL of 1×ECS was added to the wells and the plate was incubated at 37° C. for 30 min. While incubating the plate, the drugs were diluted to a 2× concentration in 1×ECS-NaI (same components as 1×ECS except the 140 mM NaCl was replaced by 140 mM NaI). The plates were then read on a Flexstation3 (Molecular Devices). Each well, 8 wells at a time, of the plate is read for 2 min using a Flexstation3 (Molecular Devices) as follows: 1) a baseline YFP fluorescence is read for 17 sec, 2) 100 μL of ligand is added, and 3) the changes in YFP fluorescence are then measured every 1.3 sec for 1 minute and 43 seconds. The percent quench is calculated from the average fluorescence of the last 10 seconds of the read divided by the baseline average of the first 15 seconds prior to the ligand addition.
# FIGS. 1A-1J provide heat maps of the percent quench of YFP fluorescence following stimulation by various doses of either acetylcholine or the non-native ligand as indicated in the Figures. CODA71 (SEQ ID NO: 33) was used as a control, and CODA75 (SEQ ID NO: 29, a non-responding chimeric engineered receptor) was used as the negative control. Quenching of the fluorescence signal, as indicated by blue shaded cells, indicate the level of engineered receptor activation by the non-native ligand at that concentration.
molecule,measurement,setting,value
B1,YFP fluorescence quenching using CNL001,"1 nM CNL001, first column",9.048%
same,YFP fluorescence quenching using CNL001,"1 nM CNL001, second column",26.601%
same,YFP fluorescence quenching using TC-5619/Bradanicline,3 nM brd,49.33%
same,YFP fluorescence quenching using Varenicline,"3 nM var, first column",19.949
same,YFP fluorescence quenching using Varenicline,"3 nM var, second column",22.334
same,YFP fluorescence quenching using CNL001,"10 nM CNL001, first column",71.533%
same,YFP fluorescence quenching using CNL001,"10 nM CNL001, second column",72.948%
same,YFP fluorescence quenching using TC-5619/Bradanicline,30 nM brd,77.38%
same,YFP fluorescence quenching using Facinicline,30 nM fac,−28.54
same,YFP fluorescence quenching using Varenicline,"30 nM var, first column",15.764
same,YFP fluorescence quenching using Varenicline,"30 nM var, second column",16.213
same,YFP fluorescence quenching using CNL001,"50 nM CNL001, first column",75.895%
same,YFP fluorescence quenching using CNL001,"50 nM CNL001, second column",74.238%
same,YFP fluorescence quenching using ABT-126,50 nM abt,−18.69%
same,YFP fluorescence quenching using CNL001,"100 nM CNL001, first column",76%
same,YFP fluorescence quenching using CNL001,"100 nM CNL001, second column",75.861%
same,YFP fluorescence quenching using CNL002,100 nM CNL002,−9.56%
same,YFP fluorescence quenching using ABT-126,100 nM abt,−23.01%
same,YFP fluorescence quenching using AZD-0328,100 nM azd0328,−9.78%
same,YFP fluorescence quenching using ABT-126,300 nM abt,−20.92%
same,YFP fluorescence quenching using AZD-0328,300 nM azd0328,49.64%
same,YFP fluorescence quenching using TC-5619/Bradanicline,300 nM brd,77.51%
same,YFP fluorescence quenching using Facinicline,300 nM fac,72.98
same,YFP fluorescence quenching using Varenicline,"300 nM var, first column",23.135
same,YFP fluorescence quenching using Varenicline,"300 nM var, second column",22.987
same,YFP fluorescence quenching using Varenicline,"500 nM var, first column",35.048
same,YFP fluorescence quenching using Varenicline,"500 nM var, second column",34.188
same,YFP fluorescence quenching using CNL001,"1 uM CNL001, first column",76.367%
same,YFP fluorescence quenching using CNL001,"1 uM CNL001, second column",76.162%
same,YFP fluorescence quenching using CNL002,1 uM CNL002,56.9%
same,YFP fluorescence quenching using ABT-126,1 uM abt,4.99%
same,YFP fluorescence quenching using TC-6987,1 uM tc6987,45.34
same,YFP fluorescence quenching using Varenicline,"1 uM var, first column",71.031
same,YFP fluorescence quenching using Varenicline,"1 uM var, second column",71.005
same,YFP fluorescence quenching using TC-6987,10 uM tc6987,70.04
same,YFP fluorescence quenching using CNL002,30 uM CNL002,70.28%
same,YFP fluorescence quenching using AZD-0328,30 uM azd0328,81.14%
same,YFP fluorescence quenching using Facinicline,30 uM fac,87.6
same,YFP fluorescence quenching using TC-6987,500 uM tc6987,75.86
same,"percent quench of YFP fluorescence, 10 uM ach",,−18.24%
same,"percent quench of YFP fluorescence, 100 uM ach",,60%
same,"percent quench of YFP fluorescence, 1 mM ach",,66.07%
same,"percent quench of YFP fluorescence, 3 mM ach",,71.38%
B2,YFP fluorescence quenching using CNL001,"1 nM CNL001, first column",−2.114%
same,YFP fluorescence quenching using CNL001,"1 nM CNL001, second column",−5.079%
same,YFP fluorescence quenching using TC-5619/Bradanicline,3 nM brd,−14.87%
same,YFP fluorescence quenching using Varenicline,"3 nM var, first column",18.429
same,YFP fluorescence quenching using Varenicline,"3 nM var, second column",16.83
same,YFP fluorescence quenching using CNL001,"10 nM CNL001, first column",15.096%
same,YFP fluorescence quenching using CNL001,"10 nM CNL001, second column",50.554%
same,YFP fluorescence quenching using TC-5619/Bradanicline,30 nM brd,69.93%
same,YFP fluorescence quenching using Facinicline,30 nM fac,−24.14
same,YFP fluorescence quenching using Varenicline,"30 nM var, first column",23.07
same,YFP fluorescence quenching using Varenicline,"30 nM var, second column",15.868
same,YFP fluorescence quenching using CNL001,"50 nM CNL001, first column",66.585%
same,YFP fluorescence quenching using CNL001,"50 nM CNL001, second column",74.462%
same,YFP fluorescence quenching using ABT-126,50 nM abt,−24.34%
same,YFP fluorescence quenching using CNL001,"100 nM CNL001, first column",78%
same,YFP fluorescence quenching using CNL001,"100 nM CNL001, second column",77.411%
same,YFP fluorescence quenching using CNL002,100 nM CNL002,−8.68%
same,YFP fluorescence quenching using ABT-126,100 nM abt,−20.22%
same,YFP fluorescence quenching using AZD-0328,100 nM azd0328,−17.84%
same,YFP fluorescence quenching using ABT-126,300 nM abt,−20.57%
same,YFP fluorescence quenching using AZD-0328,300 nM azd0328,−11.98%
same,YFP fluorescence quenching using TC-5619/Bradanicline,300 nM brd,76.57%
same,YFP fluorescence quenching using Facinicline,300 nM fac,−14.38
same,YFP fluorescence quenching using Varenicline,"300 nM var, first column",18.819
same,YFP fluorescence quenching using Varenicline,"300 nM var, second column",19.155
same,YFP fluorescence quenching using Varenicline,"500 nM var, first column",19.117
same,YFP fluorescence quenching using Varenicline,"500 nM var, second column",22.593
same,YFP fluorescence quenching using CNL001,"1 uM CNL001, first column",79.06%
same,YFP fluorescence quenching using CNL001,"1 uM CNL001, second column",79.162%
same,YFP fluorescence quenching using CNL002,1 uM CNL002,−2.24%
same,YFP fluorescence quenching using ABT-126,1 uM abt,−19.55%
same,YFP fluorescence quenching using TC-6987,1 uM tc6987,−21.62
same,YFP fluorescence quenching using Varenicline,"1 uM var, first column",24.525
same,YFP fluorescence quenching using Varenicline,"1 uM var, second column",23.383
same,YFP fluorescence quenching using TC-6987,10 uM tc6987,21.52
same,YFP fluorescence quenching using CNL002,30 uM CNL002,66.99%
same,YFP fluorescence quenching using AZD-0328,30 uM azd0328,81.2%
same,YFP fluorescence quenching using Facinicline,30 uM fac,88.78
same,YFP fluorescence quenching using TC-6987,500 uM tc6987,60.33
same,"percent quench of YFP fluorescence, 10 uM ach",,−16.79%
same,"percent quench of YFP fluorescence, 100 uM ach",,−18.63%
same,"percent quench of YFP fluorescence, 1 mM ach",,46.28%
same,"percent quench of YFP fluorescence, 3 mM ach",,69.31%
